Data taken from the RNAGym collection of RNA variant scans (doi:10.1073/pnas.2313332121).
For some assays here: This sample holds only a part of the variants without activity.

B1: TPR 5TU (parent)
chain: GGAUCUUCUCGAUCUAACAAAAAAGACAAAUCUGCCACAAAGCUUGAGAGCAUCUUCGGAUGCAGAGGCGGCAGCCUUCGGUGGCGCGAUAGCGCCAACGUUCUCAACUAUGACACGCAAAACGCGUGCUCCGUUGAAUGGAGUUUAUCAUG
B2: TPR t1 (parent)
chain: GACCAAUCUGCCCUCAGAGCUCGAGAACAUCUUCGGAUGCAGAGGAGGCAGGCUUCGGUGGCGCGAUAGCGCCAACGUCCUCAACCUCCAAUGCAUCCCACCACAUGAUGAUGCCUGAAGAGCCUUGGUUUUUUG

Variants of: B1
Assay: polymerase ribozyme fitness, log enrichment relative to wild type (log ratio); higher = more active; in vitro selection for triplet polymerase activity
Method in brief: (§1)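 Mutant libraries of both subunits of a heterodimeric triplet polymerase ribozyme were PCR-built, transcribed, and selected once in triplicate, with frozen incubation at −7 °C and capture of gel-excised extended constructs on streptavidin beads before RT-PCR. Illumina sequencing of input and output libraries was filtered to genotypes with ≥10 input reads and ≥1 read per output. Fitness is the logarithm of genotype enrichment over wild-type enrichment, using inverse-variance-weighted replicate averages. The logarithm is base 2.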

| Variant | polymerase ribozyme fitness (log ratio) |
| --- | --- |
| GGCUCUUCUCGAUCUAACAAAAUAGACAAAUCUGCCACAAAGCUUGAGACCAUCAUCGGAUGCAGAGGCGGCAGCCUUCGGUGGCGCGAUAGCGCCAACGUUCUUAACUAUGACAUGCAAAACGUGUGCUCCGUUGAAUGGAGUUUAUCAUG [A3C A23U G50C U55A C105U C116U C125U] | ≤ -4.2 |
| GGCUCUUCUCGAUCUAACAAAAAAGACACAUCUGCCUCAAAGCUUGAGAGCAUCUUUGGAUGCAGAGGCGGCAGCCUUCGGUGGCGUGAUAGCGCCAACGUUCUCAACUAUGACACGCAAAACGCGUGCUCCGUUGAAUGGGGUUUACCAUG [A3C A29C A37U C57U C87U A142G U148C] | ≤ -4.2 |
| GGCUCUUCUCGAUCUAACAGAAAAGACAAAUCUGCCACAAAGCUUGAGAGCAUCUUCGGAUGCAGAGGCGGCAGCCUUCGGUGGAGCGAUAGCGCCAACGUUCUCAACUAUGACACGCAAAACGCGUGCUCCGUUGAAUGGAGUUUAUCAUG [A3C A20G C85A] | -2.54 |
| GGCUAUUCUCGAUCUAACAUAAAAGACAAAUCUGCCACAAAGCUUGAGAGCAUCUUAGGAUCCAGAGGCGGCAGCCUGCGGUGGCGCGAUAGCGCCAACGUUCUCAACUAUGACACGCAAAACGCGUGCUCCGUUGAAUGGAGUUUAUCAUG [A3C C5A A20U C57A G62C U78G] | ≤ -4.2 |
| GGCUCUUCUCGAUCUAACUAAAAAGACAAAUCUGCCACAAAGCUUGAGAGCAUCUUGGGAUGCAGAGGCGGCAGCCUUCGGUGGCGCGAUAGCACCAACGUUCUCAACUAUGACACGCAAAACGCGUGCUCCGUUGAAUGAAGUUUAUCAUG [A3C A19U C57G G94A G141A] | -2.02 |
| GGCUCUUCUCGAUCUAACAAAUAAGACAAAUCUGCCACAAAGCUUGAGAGCAUCUUCGGAUGCAGAGGCGGCAGCCUUCGGUGGCACGAUAUCGCCAACGUUCUCAACUAUGACACGCAAAACGCGUGCUCCGUUGAAUGGAGUUUAUCAUG [A3C A22U G86A G92U] | -2.91 |
| GGCUCUUCUCGAUCUAACAAAAAAGACAUAUCUGCCACAAAGCUUGAGAGCAUCUUCGGAUGCAGAGGCGGCAGCCUUCGGUGGCGCGAUUGCGCCAACGUUCUCAACUAUGACACGCAAAACGCGUGCUCCGUUGAAUGGAGUUUAUCAUG [A3C A29U A91U] | ≤ -4.2 |
| GGCUCUUCUCGAUCUUACAAAAAAGUCAAAUCUGCCACAAAGCUUGAGAGCAUCAUCGGAUGCAGAGGCGGCAGCCUUCGGUGGCGCGAUAGCGCCAACGUUCUCAACUAUGACACGCAAAACGCGUGCUCCGUUGAAUGGAGUUUAUCAUG [A3C A16U A26U U55A] | ≤ -4.2 |
| GGCUCUUCUCGAUCUAACAAAAAAGACAAAUCUGCCUCACAGCAUGAGAGCAUCUUCGGAUGCAGAGGCGGCAGCCUUCGGUGGCGCGAUAGCGCCAACGUUCUCAACUAUGACACGCAAAACGCGUGCUCAGUUGAAUGGAGUUUAUCAUG [A3C A37U A40C U44A C132A] | ≤ -4.2 |
| GGCUCUUCUCGAUCUAACAAAAAAGACAAAUCUGCCACAAAGCUUGAGAGCAUCUUCGGAUGCAGAGGCGGCAGCCUUCGGUGGCGCGAUAGCGCCAACGUUCUCAACUAUGACACGCAAAACGCGUGCUCCGUUGAAUGGAGUUUAUCAUG [A3C] | -0.142 |
| GGCUCUUCUCGAUCUAACGAUAAAGACAAAUCUGCCACAAAGCUAGAGAGCAUCUUCGGAUGCAGAGGCGGCAGCCUUCGGCGGCGCGAUACCGCCAACGUUCUCAACUAUGACACGCAAAACGCGUGCUCCGUUGAAGGGAGAUUAUCAUG [A3C A19G A21U U45A U82C G92C U139G U144A] | ≤ -4.2 |
| GGCUCUUCUCGAUCUAACAAAAAAGACAAAUCUGCCGCAAAGCUUGAGAGCAUCUUCGGAUGCAGAGGCGGCAGCCUUCGGUGGCGCGAUCGCGCCAACGUUCUCAACUAUGACACGCAAAACGCGUGCUCCGUUGACUUGAGUUUAUCAUG [A3C A37G A91C A138C G140U] | ≤ -4.2 |

Variants of: B2
Assay: as above
Method in brief: as §1

| Variant | polymerase ribozyme fitness (log ratio) |
| --- | --- |
| GACCAAUCUGCCCUCAGAGCUCGAGAACAUCUUCGGAUGCAGAGGAGGCAGGCUUCGGUGGCGCGAUAGCGCCAACGUCCUCAACCUCCAAUGCAUCCCACCACAUGAUGAUGCCUGAAGAGCCUUGGUUUGAUG [U132G U133A] | 0.0135 |
| GACCAAUCUGCCCUCAGAGCUCGAGAACAUCUUCGGAUGCAGAGGAGGCAGGCUUCGGUGGCGCGAUAGCGCCAACGUCCUCAACCUCCAAUGCAUCCCACCACAUGAUGAUGCCUGAAGAGCCUUGGUUUUUAG [U134A] | 0.465 |
| GACCAAUCUGCCCUCAGAGCUCGAGAACAUCUUCGGAUGCAGAGGAGGCAGGCUUCGGUGGCGCGAUAGCGCCAACGUCCUCAACCUCCAAUGCAUCCCACCACAUGAUGAUGCCUGAAGAGCCUUGGUUUUUCG [U134C] | -0.304 |
| GACCAAUCUGCCCUCAGAGCUCGAGAACAUCUUCGGAUGCAGAGGAGGCAGGCUUCGGUGGCGCGAUAGCGCCAACGUCCUCAACCUCCAAUGCAUCCCACCACAUGAUGAUGCCUGAAGAGCCUUGGUUUUUGG [U134G] | 0.625 |
| GACCAAUCUGCCCUCAGAGCUCGAGAACAUCUUCGGAUGCAGAGGAGGCAGGCUUCGGUGGCGCGAUAGCGCCAACGUCCUCAACCUCCAAUGCAUCCCACCACAUGAUGAUGCCUGAAGAGCCUUGGUUUGUUG [U132G] | -2.28 |
| GACCAAUCUGCCCUCAGAGCUCGAGAACAUCUUCGGAUGCAGAGGAGGCAGGCUUCGGUGGCGCGAUAGCGCCAACGUCCUCAACCUCCAAUGCAUCCCACCACAUGAUGAUGCCUGAAGAGCCUUGGUUUUUUU [G135U] | -0.939 |
| GACCAAUCUGCCCUCAGAGCUCGAGAACAUCUUCGGAUGCAGAGGAGGCAGGCUUCGGUGGCGCGAUAGCGCCAACGUCCUCAACCUCCAAUGCAUCCCACCACAUGAUGAUGCCUGAAGAGCCUUGGUUUUUUC [G135C] | 0.446 |
| GACCAAUCUGCCCUCAGAGCUCGAGAACAUCUUCGGAUGCAGAGGAGGCAGGCUUCGGUGGCGCGAUAGCGCCAACGUCCUCAACCUCCAAUGCAUCCCACCACAUGAUGAUGCCUGAAGAGCCUUGGUUUUUUA [G135A] | -0.639 |
